What is called EC50 is the concentration needed to bring the measured effect to its halfway point. A higher EC50 goes with weaker potency. As usually defined, the IC50 is the point on the concentration scale where inhibition reaches its midpoint. A low value points to greater potency in that assay.

Residue numbers refer to the chain shown, from its start.

Experimental findings from PMC7952403 (Nature Communications, 2021) are described below.

B1: STE72-4C10 scFv-Fc (scFv, V domains shown)
VH: EVQLQESGGGVVQPGRSLRLSCAASGFTFSSYAMHWVRQAPGKGLEWVAVISYDGSNKYYADSVKGRFTISRDNSKNTLYLQMNSLRAEDTAVYYCAREYSSSWYGLGAFDIWGQGTMVTVSS
VL: DIRLTQSPSSLSASVGDRVTITCRASQNIHYYLNWYQQKPGKAPSLLVYGASSLQSGVPSRFSGSGSGTEYTLTISSLQPEDFATYFCQQSFKSPATFGQGTKVDIK
notes: also called scFv-hFc; source: Expi293F, transient transfection, purified (Protein A)
B2: STE72-1G5 scFv-Fc (scFv, V domains shown)
VH: QVQLVQSGAEVKKPGASVKVSCKASGGTFSSYAISWVRQAPGQGLEWMGGIIPIFGTANYAQKFQGRVTITADESTSTAYMELSSLRSEDTAVYYCAVGGVQLWLTYWGQGTLVTVSS
VL: ETTLTQSPGALSLSPGERATLSCRVSQSLSSNSLAWYQQKPGQAPRLLIYDTSIRATGIPDRFSGSGSGTDFTLTISRLEPEDFAVYYCHKYGSWPRTFGQGTKVEV
notes: as for B1
B3: STE72-1B6 scFv-Fc (scFv, V domains shown)
VH: QVKLVQSGGGLVQPGGSLRLSCAASGFTFSSYAMSWVRQAPGKGLEWVSGISGSGGSTYYADSVKGRFTISRDNSKNTLYLQVNSLRAEDTAVYYCAKAPYGDFRGLWYFDYWGQGTLVTVSS
VL: DIVMTQSPFSVSASVGDRVTISCRASQDIRSWLAWYQQKPGKAPQLLIYDASSLQSGVPSRFSGSGSGTDFTLTISSLQPEDFATYYCQQADSVPLTFGGGTKVEIQ
notes: as for B1
B4: STE72-1B6 IgG (antibody, V domains shown)
VH: B3 VH
VL: B3 VL
notes: source: Expi293F, transfected, purified (Protein A); copies: 2 + 2
B5: STE73-6C8 scFv-Fc (scFv, V domains shown)
VH: QVQLQQSGAEVKKPGSSVKVSCKASGGTFSSYAISWVRQAPGQGLEWMGRIIPILGIANYAQKFQGRVTITADKSTSTAYMELSSLRSEDTAVYYCARSIAALNWFDPWGQGTLVTVSS
VL: NFMLTQPHSVSESPGKTVTIPCTGSRGSIANNYVQWYRQRPGRAPTTVIFEDNQRPSGVPDRFSGSIDRSSNSASLTISGLETEDEADYYCQSYDGSNVIFGGGTKLTVL
notes: as for B1
B6: STE73-6C8 IgG (antibody, V domains shown)
VH: B5 VH
VL: B5 VL
notes: as for B4
B7: STE72-2G4 scFv-Fc (scFv, V domains shown)
VH: QVQLVQSGAEVKKPGASVKVSCKASGYTFTSYGISWVRQAPGQGLEWMGWISAYNGNTNYAQKLQGRVTMTTDTSTSTAYMELRSLRSDDTAVYYCARFFYDSSGYSTDYWGQGTLVTVSS
VL: ETTLTQSPAFMSVTPGDRAILSCRASQSVDSHLAWYHQKPGQPPRLLIYGASTRATGIPARFSGSRSGTEFTLTISGLQSEDLGVYYCQQYASWPPGYNFGQGTKLEIK
notes: as for B1
B8: STE70-1E12 scFv-Fc (scFv, V domains shown)
VH: QMQLVQSGAEVKKPGASVKVSCKASGYTFTGYYMHWVRQAPGQGLEWMGRINPNSGGTNYAQKFQGRVTMTRDTSTSTAYMELSRLRSDDTAVYYCVRDGYNFNNWFDPWGQGTLVTVSS
VL: NFMLTQPHSVSGSPGETITISCTGSGGSIASNYVQWYRQRPGSAPTIVIYEDTQRPSGVPDRFSGSIDSSSNSASLTISGLKTEDEADYYCQSSESTNHVMFGGGSKLTVL
notes: as for B1
B9: STE70-1E12 IgG (antibody, V domains shown)
VH: B8 VH
VL: B8 VL
notes: as for B4
B10: STE72-8E1 scFv-Fc (scFv, V domains shown)
VH: QVQLQEWGPGLVQPSETLSLTCTVSGGSISSGGYYWSWIRQHPGKGLEWIGRIYPSGSTNYNPSLKSRVTMSVDTSENQFSLKLSSVTAADTAVYYCARGGPKRSGSPFDVWGQGTMVTVSS
VL: EVVMTQSPSTLSASVGDRVTITCRASQTFGPWLAWYQQKPGQAPKLLIYMASELESGVPSRFSGSGSGTEFTLSISSLQPDDFATYYCQQYNTFSPWTFGQGTKVDIK
notes: as for B1
B11: STE73-2G8 scFv-Fc (scFv, V domains shown)
VH: QVQLVQSGGGLVKPGGSLRLSCAASGITVSSNYMSWVRQAPGKGLEWVSILYSGGTTFYTDSVKGRFTISRDNSKNTLHLQMNSLRAEDTAVYYCARWSGTYYDYWGQGTLVTVSS
VL: SSELTQDPAVSVALGQTVRITCQGDSLRSYYASWYQQKPGQAPVLVIYGKNNRPSGIPDRFSGSSSGNTASLTITGAQAEDEADYYCNSRDSTNDPVLFGAGTKLTVL
notes: as for B1
B12: STE73-2G8 IgG (antibody, V domains shown)
VH: B11 VH
VL: B11 VL
notes: as for B4
B13: STE73-6C1 scFv-Fc (scFv, V domains shown)
VH: QVQLVQSGGGVVQPGRSLRLSCAASGFTFSSYAMHWVRQAPGKGLEWVAVISYDGSNKYYADSVKGRFTISRDNSKNTLYLQMNSLRAEDTAVYYCARSYVGGMDVWGQGTTVTVSS
VL: QLVLTQSPSVSGAPGQSVTISCTGTDSNIGAGYNVHWYQQLPGAAPKLIISYTDNRPSGVPDRFSGSKSGTSASLAITGLQAEDEADYYCQSSDRTLVGSLFGTGTKVTVL
notes: as for B1
B14: STE73-6C1 IgG (antibody, V domains shown)
VH: B13 VH
VL: B13 VL
notes: as for B4
B15: STE73-9G3 IgG (antibody, V domains shown)
VH: QVQLQESGGGLVQPGGSLRLSCAASGFTFSSYAMSWVRQAPGKGLEWVSAISGSGGSTYYADSVKGRFTISRDNSKNTLYLQMNSLRAEDTAVYYCARDLVLGSGSSNDWGRGTLVTVSS
VL: B13 VL with L2P, S7P
notes: as for B4
B16: STE73-9G3 scFv-Fc (scFv, V domains shown)
VH: B15 VH
VL: B13 VL with L2P, S7P
notes: as for B1
B17: STE73-2C2 scFv-Fc (scFv, V domains shown)
VH: QVQLVESGGGLVQPGGSLRLSCAASGITVSSNYMSWVRQAPGKGLEWVSVIYSGGSTFYADSVKGRFTISRDNSKNTLYLQMNSLRAEDTGVYYCARGHDNLDYWGQGTLVTVSS
VL: LPVLTQPHSVSESPGKTVIISCTGSSDSIASNYVQWYQQRPGSAPTTVIYEDNKRPSGVPDRFSGSTDSSSNSASLTISGLKTEDEAEYYCQSYDSNNHWVFGGGTKLTVL
notes: as for B1
B18: STE73-2B2 scFv-Fc (scFv, V domains shown)
VH: QVQLVQSGAEVKKPGASVKVSCKASGYTFTGYYMHWVRQAPGQGLEWMGWINPNSGGTNYAQKFQGRVTITRDTSASTAYMELSSLRSEDTAVYYCARVSGWYFGAFDIWGQGTMVTVSS
VL: LPVLTQPHSLSESPGKTVNISCTGSSGSIASNYVQWYQQRPGSAPTTVIYEDSHRPSGVPDRFSGSIDSSSNSASLSISGLKTEDEADYYCQSYDSSNNQWVFGGGTKLTVL
notes: as for B1
B19: STE72-4E12 IgG (antibody, V domains shown)
VH: QVQLVQSGAEVKKPGASVKVSCKASGYTFTSYYMHWVRQAPGQGLEWMGIINPSGGSTSYAQKFQGRVTMTRDTSTSTVYMELSSLRSEDTAVYYCARDLSGGLDYWGQGTLVTVSS
VL: ETTLTQSPATLSVSPGERVTLACRAGQTISSKLAWYRQKPGQAPSLLIYDASTRATGVPARFSGSGSGTEFTLTISSLQSEDFAVYYCQQYSDWPPTFGQGTKVEIK
notes: as for B4
B20: STE73-2E9 scFv-Fc (scFv, V domains shown)
VH: QVQLVQSGAEVKKPGASVKVSCKASGYTFTSYGISWVRQAPGQGLEWMGWISAYNGNTNYAQKLQGRVTMTTDTSTSTAYMELRSLRSDDTAVYYCARGKFDYWGQGTLVTVSS
VL: QSVLTQPPSVSEAPSQRVTISCSGSSSNIGNNAVNWYQQLPGKAPKLLIYYDDVLPSGVSDRFSGSKSGTSASLAISGLQSGDEADYYCAAWDDSLSGVVFGGGTKLTVL
notes: as for B1

The target of the first assay is T1, SARS-CoV-2 RBD-SD1 with murine IgG2a Fc part, produced in High Five cells (SARS-CoV-2, UniProt P0DTC2).
T1 construct: source: High Five insect cells, transient transfection, purified (Protein A)
The experiment in a line: ELISA. To be noted: both partners purified. On the technique in general: ELISA stands for enzyme-linked immunosorbent assay.
B1 came in with an EC50 of 0.5 nM.
The molecule B2 displayed an EC50 of 2.8 nM.
Molecule B3 returned a concentration giving a half-maximal response (EC50) of 0.5 nM.
On to B4, for which it took 1.1 nM to reach a half-maximal effect (EC50).
On the same count and under the same terms, next, B5: 1.1 nM; B6: 2.9 nM; B7: 0.2 nM.
Turning to B8, the half-maximal effective concentration (EC50) was found to be 0.3 nM.
Regarding B9, the response was half-maximal at 0.3 nM (EC50).
Still for that read-out and setting: next, B10: 0.4 nM.
On the same count and under the same terms, next, B11: 0.2 nM; B12: 0.8 nM; B13: 0.6 nM.
In turn, B14 showed a half-maximal effective concentration (EC50) of 14.1 nM.
B15 yielded an EC50 of 0.4 nM.
For B16, a half-maximal effect (EC50) was put at 0.4 nM.
On the same count and under the same terms, next, B17: 3.1 nM; B18: 0.2 nM.
On the same count and under the same terms, next, B19: 1.6 nM.

The target of the next assay is T1, SARS-CoV-2 RBD-SD1 with murine IgG2a Fc …. The experiment in a line: flow cytometry on cells. Particulars: both partners purified. A general note: Flow cytometry measures light scatter and fluorescence of single cells or particles in a stream.
B1 returned an IC50 of 3.5 nM.
The same measure, in the same setting: next, B20: 3.4 nM.
B3 registered a half-inhibitory concentration (IC50) of 4.8 nM.
The same measure, in the same setting: next, B5: 5.4 nM; B7: 3.7 nM.
B8: it took 3.2 nM to reach half-maximal inhibition (IC50).
Take B10: the midpoint of inhibition, the IC50, lay at 5.6 nM.
Still for that read-out and setting: next, B11: 2.8 nM; B13: 4.1 nM.
Take B16: the IC50 was 3.4 nM.
On the same count and under the same terms, next, B17: 3 nM.
Still for that read-out and setting: next, B18: 1.7 nM.
